# Data taken from patent publication US20260070987A1.
# Biological target: equine FcRn (large alpha subunit p51) / equine beta-2-microglobulin complex, biotinylated (equine) (UniProt P30441)
# Test: SPR (Biacore), pH 6
# UniProt P30441, sequence (P30441 21-118, one chain of several): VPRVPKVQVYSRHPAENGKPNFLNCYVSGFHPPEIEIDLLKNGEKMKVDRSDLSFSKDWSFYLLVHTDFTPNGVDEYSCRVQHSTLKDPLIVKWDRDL
row,Binder,Kd [nM]
1,"equine IgG1 T286S (antibody, part only; not given: Variable domains, not shown: another chain or arm of the molecule) constant: ASTTAPKVFALAPGCGTTSDSTVALGCLVSGYFPEPVKVSWNSGSLTSGVHTFPSVLQSSGFYSLSSMVTVPASTWTSETYICNVVHAASNFKVDKRIEPIPDNHQKVCDMSKCPKCPAPELLGGPSVFIFPPNPKDTLMITRTPEVTCVVVDVSQENPDVKFNWYMDGVEVRSATTRPKEEQFNSTYRVVSVLRIQHQDWLSGKEFKCKVNNQALPQPIERTITKTKGRSQEPQVYVLAPHPDELSKSKVSVTCLVKDFYPPEINIEWQSNGQPELETKYSTTQAQQDSDGSYFLYSKLSVDRNRWQQGTTFTCGVMHEALHNHYTQKNVSKNPGK",13.1
2,"equine IgG4 D312E (antibody, part only; not given: variable domains, not shown: another chain or arm of the molecule) constant: ASTTAPKVFPLASHSAATSGSTVALGCLVSSYFPEPVTVSWNSGALTSGVHTFPSVLQSSGLYSLSSMVTVPASSLKSQTYICNVAHPASSTKVDKKIVIKECNGGCPAECLQVGPSVFIFPPKPKDVLMISRTPTVTCVVVDVGHDFPDVQFNWYVDGVETHTATTEPKQEQFNSTYRVVSVLPIQHKEWLSGKEFKCKVNNKALPAPVERTISKPTGQPREPQVYVLAPHRDELSKNKVSVTCLVKDFYPTDIDIEWKSNGQPEPETKYSTTPAQLDSDGSYFLYSKLTVETNRWQQGTTFTCAVMHEALHNHYTEKSVSKSPGK",50.2
3,"equine IgG4 D312S (antibody, part only; not given: variable domains, not shown: another chain or arm of the molecule) constant: ASTTAPKVFPLASHSAATSGSTVALGCLVSSYFPEPVTVSWNSGALTSGVHTFPSVLQSSGLYSLSSMVTVPASSLKSQTYICNVAHPASSTKVDKKIVIKECNGGCPAECLQVGPSVFIFPPKPKDVLMISRTPTVTCVVVDVGHDFPDVQFNWYVDGVETHTATTEPKQEQFNSTYRVVSVLPIQHKSWLSGKEFKCKVNNKALPAPVERTISKPTGQPREPQVYVLAPHRDELSKNKVSVTCLVKDFYPTDIDIEWKSNGQPEPETKYSTTPAQLDSDGSYFLYSKLTVETNRWQQGTTFTCAVMHEALHNHYTEKSVSKSPGK",17.4
4,"equine IgG4 D312N (antibody, part only; not given: variable domains, not shown: another chain or arm of the molecule) constant: ASTTAPKVFPLASHSAATSGSTVALGCLVSSYFPEPVTVSWNSGALTSGVHTFPSVLQSSGLYSLSSMVTVPASSLKSQTYICNVAHPASSTKVDKKIVIKECNGGCPAECLQVGPSVFIFPPKPKDVLMISRTPTVTCVVVDVGHDFPDVQFNWYVDGVETHTATTEPKQEQFNSTYRVVSVLPIQHKNWLSGKEFKCKVNNKALPAPVERTISKPTGQPREPQVYVLAPHRDELSKNKVSVTCLVKDFYPTDIDIEWKSNGQPEPETKYSTTPAQLDSDGSYFLYSKLTVETNRWQQGTTFTCAVMHEALHNHYTEKSVSKSPGK",16.1
5,"equine IgG4 D312K (antibody, part only; not given: variable domains, not shown: another chain or arm of the molecule) constant: ASTTAPKVFPLASHSAATSGSTVALGCLVSSYFPEPVTVSWNSGALTSGVHTFPSVLQSSGLYSLSSMVTVPASSLKSQTYICNVAHPASSTKVDKKIVIKECNGGCPAECLQVGPSVFIFPPKPKDVLMISRTPTVTCVVVDVGHDFPDVQFNWYVDGVETHTATTEPKQEQFNSTYRVVSVLPIQHKKWLSGKEFKCKVNNKALPAPVERTISKPTGQPREPQVYVLAPHRDELSKNKVSVTCLVKDFYPTDIDIEWKSNGQPEPETKYSTTPAQLDSDGSYFLYSKLTVETNRWQQGTTFTCAVMHEALHNHYTEKSVSKSPGK",13.6
6,"equine IgG4 D312R (antibody, part only; not given: variable domains, not shown: another chain or arm of the molecule) constant: ASTTAPKVFPLASHSAATSGSTVALGCLVSSYFPEPVTVSWNSGALTSGVHTFPSVLQSSGLYSLSSMVTVPASSLKSQTYICNVAHPASSTKVDKKIVIKECNGGCPAECLQVGPSVFIFPPKPKDVLMISRTPTVTCVVVDVGHDFPDVQFNWYVDGVETHTATTEPKQEQFNSTYRVVSVLPIQHKRWLSGKEFKCKVNNKALPAPVERTISKPTGQPREPQVYVLAPHRDELSKNKVSVTCLVKDFYPTDIDIEWKSNGQPEPETKYSTTPAQLDSDGSYFLYSKLTVETNRWQQGTTFTCAVMHEALHNHYTEKSVSKSPGK",18.5
7,"equine IgG4 D312G (antibody, part only; not given: variable domains, not shown: another chain or arm of the molecule) constant: ASTTAPKVFPLASHSAATSGSTVALGCLVSSYFPEPVTVSWNSGALTSGVHTFPSVLQSSGLYSLSSMVTVPASSLKSQTYICNVAHPASSTKVDKKIVIKECNGGCPAECLQVGPSVFIFPPKPKDVLMISRTPTVTCVVVDVGHDFPDVQFNWYVDGVETHTATTEPKQEQFNSTYRVVSVLPIQHKGWLSGKEFKCKVNNKALPAPVERTISKPTGQPREPQVYVLAPHRDELSKNKVSVTCLVKDFYPTDIDIEWKSNGQPEPETKYSTTPAQLDSDGSYFLYSKLTVETNRWQQGTTFTCAVMHEALHNHYTEKSVSKSPGK",11.2
8,"equine IgG4 D312M (antibody, part only; not given: variable domains, not shown: another chain or arm of the molecule) constant: ASTTAPKVFPLASHSAATSGSTVALGCLVSSYFPEPVTVSWNSGALTSGVHTFPSVLQSSGLYSLSSMVTVPASSLKSQTYICNVAHPASSTKVDKKIVIKECNGGCPAECLQVGPSVFIFPPKPKDVLMISRTPTVTCVVVDVGHDFPDVQFNWYVDGVETHTATTEPKQEQFNSTYRVVSVLPIQHKMWLSGKEFKCKVNNKALPAPVERTISKPTGQPREPQVYVLAPHRDELSKNKVSVTCLVKDFYPTDIDIEWKSNGQPEPETKYSTTPAQLDSDGSYFLYSKLTVETNRWQQGTTFTCAVMHEALHNHYTEKSVSKSPGK",25
9,"equine IgG4 D312Q (antibody, part only; not given: variable domains, not shown: another chain or arm of the molecule) constant: ASTTAPKVFPLASHSAATSGSTVALGCLVSSYFPEPVTVSWNSGALTSGVHTFPSVLQSSGLYSLSSMVTVPASSLKSQTYICNVAHPASSTKVDKKIVIKECNGGCPAECLQVGPSVFIFPPKPKDVLMISRTPTVTCVVVDVGHDFPDVQFNWYVDGVETHTATTEPKQEQFNSTYRVVSVLPIQHKQWLSGKEFKCKVNNKALPAPVERTISKPTGQPREPQVYVLAPHRDELSKNKVSVTCLVKDFYPTDIDIEWKSNGQPEPETKYSTTPAQLDSDGSYFLYSKLTVETNRWQQGTTFTCAVMHEALHNHYTEKSVSKSPGK",28.1
10,"equine IgG4 D312H (antibody, part only; not given: Variable domains, not shown: another chain or arm of the molecule) constant: ASTTAPKVFPLASHSAATSGSTVALGCLVSSYFPEPVTVSWNSGALTSGVHTFPSVLQSSGLYSLSSMVTVPASSLKSQTYICNVAHPASSTKVDKKIVIKECNGGCPAECLQVGPSVFIFPPKPKDVLMISRTPTVTCVVVDVGHDFPDVQFNWYVDGVETHTATTEPKQEQFNSTYRVVSVLPIQHKHWLSGKEFKCKVNNKALPAPVERTISKPTGQPREPQVYVLAPHRDELSKNKVSVTCLVKDFYPTDIDIEWKSNGQPEPETKYSTTPAQLDSDGSYFLYSKLTVETNRWQQGTTFTCAVMHEALHNHYTEKSVSKSPGK",20.2
11,"equine IgG4 D312V (antibody, part only; not given: variable domains, not shown: another chain or arm of the molecule) constant: ASTTAPKVFPLASHSAATSGSTVALGCLVSSYFPEPVTVSWNSGALTSGVHTFPSVLQSSGLYSLSSMVTVPASSLKSQTYICNVAHPASSTKVDKKIVIKECNGGCPAECLQVGPSVFIFPPKPKDVLMISRTPTVTCVVVDVGHDFPDVQFNWYVDGVETHTATTEPKQEQFNSTYRVVSVLPIQHKVWLSGKEFKCKVNNKALPAPVERTISKPTGQPREPQVYVLAPHRDELSKNKVSVTCLVKDFYPTDIDIEWKSNGQPEPETKYSTTPAQLDSDGSYFLYSKLTVETNRWQQGTTFTCAVMHEALHNHYTEKSVSKSPGK",31.1
12,"equine IgG4 D312F (antibody, part only; not given: variable domains, not shown: another chain or arm of the molecule) constant: ASTTAPKVFPLASHSAATSGSTVALGCLVSSYFPEPVTVSWNSGALTSGVHTFPSVLQSSGLYSLSSMVTVPASSLKSQTYICNVAHPASSTKVDKKIVIKECNGGCPAECLQVGPSVFIFPPKPKDVLMISRTPTVTCVVVDVGHDFPDVQFNWYVDGVETHTATTEPKQEQFNSTYRVVSVLPIQHKFWLSGKEFKCKVNNKALPAPVERTISKPTGQPREPQVYVLAPHRDELSKNKVSVTCLVKDFYPTDIDIEWKSNGQPEPETKYSTTPAQLDSDGSYFLYSKLTVETNRWQQGTTFTCAVMHEALHNHYTEKSVSKSPGK",23
13,"equine IgG4 D312T (antibody, part only; not given: variable domains, not shown: another chain or arm of the molecule) constant: ASTTAPKVFPLASHSAATSGSTVALGCLVSSYFPEPVTVSWNSGALTSGVHTFPSVLQSSGLYSLSSMVTVPASSLKSQTYICNVAHPASSTKVDKKIVIKECNGGCPAECLQVGPSVFIFPPKPKDVLMISRTPTVTCVVVDVGHDFPDVQFNWYVDGVETHTATTEPKQEQFNSTYRVVSVLPIQHKTWLSGKEFKCKVNNKALPAPVERTISKPTGQPREPQVYVLAPHRDELSKNKVSVTCLVKDFYPTDIDIEWKSNGQPEPETKYSTTPAQLDSDGSYFLYSKLTVETNRWQQGTTFTCAVMHEALHNHYTEKSVSKSPGK",28.7
14,"equine IgG4 D312L (antibody, part only; not given: variable domains, not shown: another chain or arm of the molecule) constant: ASTTAPKVFPLASHSAATSGSTVALGCLVSSYFPEPVTVSWNSGALTSGVHTFPSVLQSSGLYSLSSMVTVPASSLKSQTYICNVAHPASSTKVDKKIVIKECNGGCPAECLQVGPSVFIFPPKPKDVLMISRTPTVTCVVVDVGHDFPDVQFNWYVDGVETHTATTEPKQEQFNSTYRVVSVLPIQHKLWLSGKEFKCKVNNKALPAPVERTISKPTGQPREPQVYVLAPHRDELSKNKVSVTCLVKDFYPTDIDIEWKSNGQPEPETKYSTTPAQLDSDGSYFLYSKLTVETNRWQQGTTFTCAVMHEALHNHYTEKSVSKSPGK",11.6
15,"equine IgG4 D312P (antibody, part only; not given: Variable domains, not shown: another chain or arm of the molecule) constant: ASTTAPKVFPLASHSAATSGSTVALGCLVSSYFPEPVTVSWNSGALTSGVHTFPSVLQSSGLYSLSSMVTVPASSLKSQTYICNVAHPASSTKVDKKIVIKECNGGCPAECLQVGPSVFIFPPKPKDVLMISRTPTVTCVVVDVGHDFPDVQFNWYVDGVETHTATTEPKQEQFNSTYRVVSVLPIQHKPWLSGKEFKCKVNNKALPAPVERTISKPTGQPREPQVYVLAPHRDELSKNKVSVTCLVKDFYPTDIDIEWKSNGQPEPETKYSTTPAQLDSDGSYFLYSKLTVETNRWQQGTTFTCAVMHEALHNHYTEKSVSKSPGK",15.1
16,"equine IgG4 D312I (antibody, part only; not given: Variable domains, not shown: another chain or arm of the molecule) constant: ASTTAPKVFPLASHSAATSGSTVALGCLVSSYFPEPVTVSWNSGALTSGVHTFPSVLQSSGLYSLSSMVTVPASSLKSQTYICNVAHPASSTKVDKKIVIKECNGGCPAECLQVGPSVFIFPPKPKDVLMISRTPTVTCVVVDVGHDFPDVQFNWYVDGVETHTATTEPKQEQFNSTYRVVSVLPIQHKIWLSGKEFKCKVNNKALPAPVERTISKPTGQPREPQVYVLAPHRDELSKNKVSVTCLVKDFYPTDIDIEWKSNGQPEPETKYSTTPAQLDSDGSYFLYSKLTVETNRWQQGTTFTCAVMHEALHNHYTEKSVSKSPGK",29.4
